{"source": "paper PMC8878332", "about": "“The C-Terminal Domain of Staphylococcus aureus Zinc Transport Protein AdcA Binds Plasminogen and Factor H In Vitro” (Pathogens, 2022)", "binders": {"B1": {"name": "MntC from Staphylococcus aureus (natural protein)", "chain": "CGTGGKQSSDKSNGKLKVVTTNSILYDMAKNVGGDNVDIHSIVPVGQDPHEYEVKPKDIKKLTDADVILYNGLNLETGNGWFEKALEQAGKSLKDKKVIAVSKDVKPIYLNGEEGNKDKQDPHAWLSLDNGIKYVKTIQQTFIDNDKKHKADYEKQGNKYIAQLEKLNNDSKDKFNDIPKEQRAMITSEGAFKYFSKQYGITPGYIWEINTEKQGTPEQMRQAIEFVKKHKLKHLLVETSVDKKAMESLSEETKKDIFGEVYTDSIGKEGTKGDSYYKMMKSNIETVHGSMK"}}, "target": "T1, Human plasminogen (human)", "T1 construct": "human plasminogen, 92 kDa, commercial; also called PLG; purified plasminogen; source: bought: Sigma-Aldrich", "T1 sequence (P00747 20-810)": "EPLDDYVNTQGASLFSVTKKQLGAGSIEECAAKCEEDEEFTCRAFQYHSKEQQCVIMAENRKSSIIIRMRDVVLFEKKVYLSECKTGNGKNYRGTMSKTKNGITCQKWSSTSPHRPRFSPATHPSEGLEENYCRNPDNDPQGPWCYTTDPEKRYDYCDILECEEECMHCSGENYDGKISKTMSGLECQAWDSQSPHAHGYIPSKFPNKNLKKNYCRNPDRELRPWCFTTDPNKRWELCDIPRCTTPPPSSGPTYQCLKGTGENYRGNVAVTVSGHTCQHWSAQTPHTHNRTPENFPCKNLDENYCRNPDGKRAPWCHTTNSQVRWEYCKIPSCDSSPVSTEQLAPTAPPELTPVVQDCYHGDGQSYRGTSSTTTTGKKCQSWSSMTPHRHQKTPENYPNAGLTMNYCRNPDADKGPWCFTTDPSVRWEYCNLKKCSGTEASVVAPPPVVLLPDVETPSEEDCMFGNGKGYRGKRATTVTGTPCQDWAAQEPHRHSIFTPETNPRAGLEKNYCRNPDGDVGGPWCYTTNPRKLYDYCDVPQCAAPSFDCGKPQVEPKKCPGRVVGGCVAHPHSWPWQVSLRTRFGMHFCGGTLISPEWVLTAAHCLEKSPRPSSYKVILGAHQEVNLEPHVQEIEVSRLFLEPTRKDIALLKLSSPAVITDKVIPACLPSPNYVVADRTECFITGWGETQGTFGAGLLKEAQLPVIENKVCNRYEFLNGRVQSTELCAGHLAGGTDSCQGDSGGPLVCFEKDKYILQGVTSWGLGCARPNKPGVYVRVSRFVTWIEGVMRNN", "experiment": "ELISA; plasminogen immobilised on plate wells (1 ug in 100 uL PBS), blocked with 1% gelatin; AdcA 0-1 uM in PBS, 1.5 h at 37 C; bound AdcA detected with rabbit anti-AdcA serum; apparent KD from the fit to total binding saturation (GraphPad Prism); MntC run as control; EACA (0.1-10 mM) or NaCl (25-800 mM) added in further panels", "conditions": "both partners purified"}
{"binder": "B1", "values": [{"measurement": "Kd", "value": 14.8, "unit": "nM"}]}
